Experimental data: the supplement of paper PMC10065799, “High-throughput profiling of sequence recognition by tyrosine kinases and SH2 domains using bacterial peptide display” (eLife, 2023)

Key:
Grb2 SH2 = Grb2 SH2 (UniProt P62993); assay: SH2 binding enrichment of the phosphorylated peptide, bacterial display (enrichment ratio); higher = better substrate or ligand; peptides without Tyr show the background
c-Src SH2 = assay: as above
SHP2-C SH2 = assay: as above
Hck = Hck (UniProt P08631); assay: phosphorylation enrichment, bacterial display (enrichment ratio); higher = better substrate or ligand; peptides without Tyr show the background
EPHB2 = EPHB2 (UniProt P29323); assay: as above
Sequence of EPHB2 (P29323 whole entry, looked up): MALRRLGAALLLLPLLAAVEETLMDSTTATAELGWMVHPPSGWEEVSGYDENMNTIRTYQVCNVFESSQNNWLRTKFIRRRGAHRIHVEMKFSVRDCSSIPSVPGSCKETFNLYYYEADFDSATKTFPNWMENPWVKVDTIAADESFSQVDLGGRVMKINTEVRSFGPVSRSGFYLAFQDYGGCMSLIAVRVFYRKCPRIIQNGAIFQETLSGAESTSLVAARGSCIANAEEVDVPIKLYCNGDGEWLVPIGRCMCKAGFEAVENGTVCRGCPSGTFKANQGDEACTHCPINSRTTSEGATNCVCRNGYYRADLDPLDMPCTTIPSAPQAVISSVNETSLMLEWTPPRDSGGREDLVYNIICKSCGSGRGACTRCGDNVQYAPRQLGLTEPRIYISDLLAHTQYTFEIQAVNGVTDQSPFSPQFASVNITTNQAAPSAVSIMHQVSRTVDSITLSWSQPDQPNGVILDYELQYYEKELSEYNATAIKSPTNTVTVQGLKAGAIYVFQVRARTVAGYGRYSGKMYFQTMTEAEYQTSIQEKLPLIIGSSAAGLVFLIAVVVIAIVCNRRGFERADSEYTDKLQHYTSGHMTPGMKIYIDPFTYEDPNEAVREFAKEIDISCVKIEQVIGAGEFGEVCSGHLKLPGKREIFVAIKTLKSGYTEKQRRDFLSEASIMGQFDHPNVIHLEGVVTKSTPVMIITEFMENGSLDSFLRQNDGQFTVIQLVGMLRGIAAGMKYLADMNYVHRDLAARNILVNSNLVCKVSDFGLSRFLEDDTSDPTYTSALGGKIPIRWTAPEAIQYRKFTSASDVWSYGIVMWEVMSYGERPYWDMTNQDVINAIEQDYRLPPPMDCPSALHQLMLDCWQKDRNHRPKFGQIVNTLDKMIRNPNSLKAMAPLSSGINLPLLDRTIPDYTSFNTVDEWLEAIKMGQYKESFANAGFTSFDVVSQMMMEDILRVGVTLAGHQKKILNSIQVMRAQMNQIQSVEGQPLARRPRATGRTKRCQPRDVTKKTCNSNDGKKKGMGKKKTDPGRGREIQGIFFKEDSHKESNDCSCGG

Jak2 = Jak2 (UniProt O60674); assay: as above
Fer (mouse) = assay: as above
FGFR3 = FGFR3 (UniProt P22607); assay: as above
Sequence of FGFR3 (P22607 whole entry, looked up): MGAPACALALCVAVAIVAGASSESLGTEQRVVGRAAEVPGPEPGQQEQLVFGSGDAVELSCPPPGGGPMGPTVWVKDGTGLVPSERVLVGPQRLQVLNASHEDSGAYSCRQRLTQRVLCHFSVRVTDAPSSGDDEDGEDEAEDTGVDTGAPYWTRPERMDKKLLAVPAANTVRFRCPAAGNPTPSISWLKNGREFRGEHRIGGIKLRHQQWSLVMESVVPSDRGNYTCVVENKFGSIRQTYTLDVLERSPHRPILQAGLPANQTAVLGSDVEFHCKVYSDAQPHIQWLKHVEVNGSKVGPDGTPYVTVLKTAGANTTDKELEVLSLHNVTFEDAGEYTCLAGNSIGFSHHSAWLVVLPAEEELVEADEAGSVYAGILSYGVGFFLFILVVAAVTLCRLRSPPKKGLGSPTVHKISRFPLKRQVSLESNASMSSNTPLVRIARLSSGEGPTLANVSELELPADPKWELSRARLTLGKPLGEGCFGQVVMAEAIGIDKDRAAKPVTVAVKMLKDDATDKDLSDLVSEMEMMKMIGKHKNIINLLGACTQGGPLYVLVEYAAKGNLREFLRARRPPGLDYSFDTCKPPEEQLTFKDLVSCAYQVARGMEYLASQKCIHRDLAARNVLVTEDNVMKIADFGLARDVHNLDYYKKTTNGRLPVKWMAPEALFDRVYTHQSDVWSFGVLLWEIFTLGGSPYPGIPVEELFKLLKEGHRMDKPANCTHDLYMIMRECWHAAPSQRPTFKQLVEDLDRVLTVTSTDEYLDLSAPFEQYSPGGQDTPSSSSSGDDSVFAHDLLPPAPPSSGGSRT

AncSZ = assay: as above
FGFR1 = FGFR1 (UniProt P11362); assay: as above
Sequence of FGFR1 (P11362 whole entry, looked up): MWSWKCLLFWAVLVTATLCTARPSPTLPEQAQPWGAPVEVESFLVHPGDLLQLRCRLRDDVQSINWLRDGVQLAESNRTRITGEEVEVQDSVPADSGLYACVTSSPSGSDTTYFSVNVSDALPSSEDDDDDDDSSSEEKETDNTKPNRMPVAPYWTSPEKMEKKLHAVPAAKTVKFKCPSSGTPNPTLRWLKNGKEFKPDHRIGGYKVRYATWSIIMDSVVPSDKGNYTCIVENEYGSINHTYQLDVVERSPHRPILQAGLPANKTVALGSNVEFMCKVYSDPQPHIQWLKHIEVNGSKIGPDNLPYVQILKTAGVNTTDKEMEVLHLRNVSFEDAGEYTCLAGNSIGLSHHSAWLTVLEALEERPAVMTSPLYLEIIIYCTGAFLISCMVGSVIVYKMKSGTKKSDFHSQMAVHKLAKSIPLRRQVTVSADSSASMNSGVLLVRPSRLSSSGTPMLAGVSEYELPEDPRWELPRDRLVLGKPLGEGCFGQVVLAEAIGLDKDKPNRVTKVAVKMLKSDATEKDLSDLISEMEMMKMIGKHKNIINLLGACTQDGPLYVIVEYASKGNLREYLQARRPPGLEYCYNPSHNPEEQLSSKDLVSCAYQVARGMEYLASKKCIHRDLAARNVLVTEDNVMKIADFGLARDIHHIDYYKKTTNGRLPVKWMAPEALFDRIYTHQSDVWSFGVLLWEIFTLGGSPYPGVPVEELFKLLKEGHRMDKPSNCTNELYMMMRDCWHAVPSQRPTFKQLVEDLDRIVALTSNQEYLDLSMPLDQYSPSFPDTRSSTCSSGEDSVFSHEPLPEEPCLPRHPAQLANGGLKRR

c-Src = assay: as above
MERTK = MERTK (UniProt Q12866); assay: as above
Sequence of MERTK (Q12866 whole entry, looked up): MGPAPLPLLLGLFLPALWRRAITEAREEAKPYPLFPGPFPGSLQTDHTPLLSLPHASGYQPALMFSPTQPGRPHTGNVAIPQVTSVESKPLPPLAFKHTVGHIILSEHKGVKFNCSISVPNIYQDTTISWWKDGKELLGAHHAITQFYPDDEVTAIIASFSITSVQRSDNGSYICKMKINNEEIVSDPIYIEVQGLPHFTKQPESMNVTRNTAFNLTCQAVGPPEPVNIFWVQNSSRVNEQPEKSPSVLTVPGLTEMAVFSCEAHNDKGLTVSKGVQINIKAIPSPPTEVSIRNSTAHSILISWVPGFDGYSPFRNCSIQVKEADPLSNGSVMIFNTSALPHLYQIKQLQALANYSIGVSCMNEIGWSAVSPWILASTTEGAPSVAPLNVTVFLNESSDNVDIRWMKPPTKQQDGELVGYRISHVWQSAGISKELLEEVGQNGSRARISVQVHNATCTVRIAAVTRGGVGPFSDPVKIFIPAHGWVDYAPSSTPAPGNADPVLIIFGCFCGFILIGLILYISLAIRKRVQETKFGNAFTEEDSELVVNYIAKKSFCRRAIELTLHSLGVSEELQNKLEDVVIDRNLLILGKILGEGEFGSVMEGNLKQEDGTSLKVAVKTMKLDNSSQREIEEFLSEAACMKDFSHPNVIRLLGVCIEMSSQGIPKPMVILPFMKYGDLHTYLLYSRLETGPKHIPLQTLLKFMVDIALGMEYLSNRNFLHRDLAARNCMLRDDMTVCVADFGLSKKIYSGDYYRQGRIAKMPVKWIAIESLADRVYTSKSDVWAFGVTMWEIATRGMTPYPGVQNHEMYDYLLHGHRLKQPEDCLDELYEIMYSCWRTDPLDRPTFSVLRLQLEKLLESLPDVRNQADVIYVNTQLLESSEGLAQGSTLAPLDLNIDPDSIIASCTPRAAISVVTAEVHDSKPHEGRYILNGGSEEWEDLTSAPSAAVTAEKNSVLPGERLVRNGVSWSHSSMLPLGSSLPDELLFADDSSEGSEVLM

EPHB1 = EPHB1 (UniProt P54762); assay: as above
Fyn = Fyn (UniProt P06241); assay: as above
Sequence of Fyn (P06241 whole entry, looked up): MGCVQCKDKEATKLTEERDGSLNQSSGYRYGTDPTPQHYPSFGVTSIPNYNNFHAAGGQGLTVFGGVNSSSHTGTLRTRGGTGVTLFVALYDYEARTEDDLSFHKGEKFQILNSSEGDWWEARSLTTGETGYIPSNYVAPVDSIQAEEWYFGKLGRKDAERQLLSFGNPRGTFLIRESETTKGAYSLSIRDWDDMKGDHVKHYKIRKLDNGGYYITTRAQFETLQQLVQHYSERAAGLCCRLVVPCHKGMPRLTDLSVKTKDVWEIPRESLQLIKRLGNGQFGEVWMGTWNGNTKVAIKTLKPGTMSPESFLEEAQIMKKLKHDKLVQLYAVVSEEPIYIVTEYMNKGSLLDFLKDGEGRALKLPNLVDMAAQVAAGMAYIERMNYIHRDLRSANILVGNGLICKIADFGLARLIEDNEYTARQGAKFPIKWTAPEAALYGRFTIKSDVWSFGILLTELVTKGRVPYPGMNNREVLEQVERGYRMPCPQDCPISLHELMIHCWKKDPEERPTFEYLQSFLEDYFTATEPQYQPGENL

Fes = Fes (UniProt P07332); assay: as above
Sequence of Fes (P07332 whole entry, looked up): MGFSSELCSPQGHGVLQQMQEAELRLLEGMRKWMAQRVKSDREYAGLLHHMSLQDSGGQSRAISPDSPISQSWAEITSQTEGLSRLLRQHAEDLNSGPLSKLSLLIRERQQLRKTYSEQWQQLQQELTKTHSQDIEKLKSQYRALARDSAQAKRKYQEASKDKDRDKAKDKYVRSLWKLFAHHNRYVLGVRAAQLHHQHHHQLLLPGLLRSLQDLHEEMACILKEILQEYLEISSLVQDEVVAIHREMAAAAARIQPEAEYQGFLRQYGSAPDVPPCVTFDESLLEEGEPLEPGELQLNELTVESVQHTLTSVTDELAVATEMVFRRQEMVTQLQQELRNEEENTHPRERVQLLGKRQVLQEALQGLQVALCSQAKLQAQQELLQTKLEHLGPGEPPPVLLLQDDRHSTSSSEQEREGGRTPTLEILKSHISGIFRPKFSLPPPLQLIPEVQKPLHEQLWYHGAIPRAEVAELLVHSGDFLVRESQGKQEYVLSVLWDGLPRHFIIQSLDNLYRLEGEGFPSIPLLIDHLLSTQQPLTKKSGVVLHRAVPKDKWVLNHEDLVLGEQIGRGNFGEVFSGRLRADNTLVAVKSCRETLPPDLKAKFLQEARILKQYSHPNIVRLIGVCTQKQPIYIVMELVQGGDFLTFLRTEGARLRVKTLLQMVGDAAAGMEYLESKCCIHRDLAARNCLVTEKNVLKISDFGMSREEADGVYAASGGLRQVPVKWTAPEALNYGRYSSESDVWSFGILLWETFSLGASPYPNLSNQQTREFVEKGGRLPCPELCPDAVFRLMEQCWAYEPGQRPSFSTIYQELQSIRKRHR

c-Abl (mouse) = assay: as above
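Wherever SH2 binding enrichment of the phosphorylated peptide, bacterial display is given: peptide library displayed on the E. coli surface as eCPX fusions, selected cells deep-sequenced, score is each peptide's frequency after selection divided by its frequency in the input.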
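Wherever phosphorylation enrichment, bacterial display is given: 11-residue human phosphosite peptides and single-mutation variants displayed on the E. coli surface, counted by deep sequencing, each peptide's frequency after selection divided by its frequency in the unselected input library; frequency after pTyr selection over input frequency; kinase dosed for 20-30% of maximal phosphorylation in three min.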

Row | SH2 binding enrichment (Grb2 SH2) | SH2 binding enrichment (c-Src SH2) | SH2 binding enrichment (SHP2-C SH2) | Sequence | phosphorylation enrichment (Hck) | phosphorylation enrichment (EPHB2) | phosphorylation enrichment (Jak2) | phosphorylation enrichment (Fer (mouse)) | phosphorylation enrichment (FGFR3) | phosphorylation enrichment (AncSZ) | phosphorylation enrichment (FGFR1) | phosphorylation enrichment (c-Src) | phosphorylation enrichment (MERTK) | phosphorylation enrichment (EPHB1) | phosphorylation enrichment (Fyn) | phosphorylation enrichment (Fes) | phosphorylation enrichment (c-Abl (mouse))
1 | 0.978 | 0.677 | 0.907 | FLENFYDLEKD [MMP3_Y42_K45E_YF] | 1.39 | 0.546 | 1.21 | 0.433 | 0.679 | 1.33 | 0.504 | 2.23 | 0.516 | 0.531 | 4.33 | 1.34 | 0.764
2 | 1.02 | 0.591 | 1.5 | FQKNIYSEELR [LMNA_Y211] | 1.07 | 0.728 | 1.04 | 0.516 | 1.2 | 1.01 | 0.801 | 1.81 | 5.8 | 0.84 | 0.965 | 1.24 | 1.04
3 | 1.29 | 1.18 | 0.674 | FQLENYCNGGG [INS_Y108_YF] | 0.619 | 0.458 | 2.44 | 0.364 | 0.72 | 1.34 | 0.601 | 0.736 | 0.45 | 0.677 | 0.878 | 1.41 | 1.76
4 | 0.921 | 0.891 | 0.854 | FQVRRYDCDCD [CRYGS_Y21_G18V] | 0.498 | 0.592 | 1.32 | 0.497 | 0.758 | 1.19 | 0.557 | 0.622 | 0.553 | 0.583 | 0.563 | 1.32 | 0.788
5 | 0.475 | 0.399 | 0.456 | FRRITYHNWRH [PDE6B_Y556_YF] | 0.527 | 0.515 | 0.627 | 0.571 | 0.458 | 0.785 | 0.432 | 0.535 | 0.518 | 0.309 | 0.593 | 0.635 | 0.577
6 | 0.879 | 0.471 | 0.654 | FSKQIYKGMVA [PCDH15_Y931_R929Q] | 0.384 | 0.342 | 0.472 | 0.331 | 0.432 | 0.441 | 0.337 | 0.365 | 0.346 | 0.351 | 0.502 | 0.479 | 0.42
7 | 0.962 | 0.56 | 1.03 | FSKTQYNQVPS [CXADR_Y318_YF] | 0.598 | 0.858 | 1.15 | 0.551 | 0.556 | 0.801 | 0.577 | 0.613 | 0.697 | 0.424 | 0.507 | 0.85 | 0.892
8 | 0.938 | 0.557 | 0.706 | FSMGCYEIFLG [HMGCL_Y198_S201Y_YF] | 3.21 | 2.07 | 1.51 | 3.74 | 1.35 | 2.87 | 0.95 | 6.25 | 4.33 | 2.01 | 5.89 | 1.8 | 1.28
9 | 1.35 | 0.8 | 1.15 | FVSLIYTNFEA [GSTP1_Y109_I105V_YF] | 3.31 | 0.91 | 1.18 | 3.18 | 1.05 | 1.78 | 0.962 | 5.94 | 5.37 | 1.13 | 5.96 | 1.46 | 2.22
10 | 1.33 | 0.95 | 1.07 | FVSSFYHAFSG [ACTN4_Y265_YF] | 2.6 | 0.896 | 1.19 | 0.522 | 1.34 | 0.999 | 1.2 | 4.01 | 8.71 | 1.51 | 2.32 | 1.3 | 2.01
11 | 0.745 | 2 | 0.699 | FYRNVYHLASV [RBL1_Y796_K794N] | 0.648 | 0.587 | 0.484 | 0.417 | 0.556 | 0.728 | 0.464 | 1 | 0.371 | 0.611 | 1.93 | 0.635 | 0.429
12 | 0.79 | 0.523 | 0.648 | GADAIYDHVNE [UQCR10_Y44_I47V] | 6.29 | 1.82 | 0.773 | 3.42 | 0.62 | 1.09 | 0.456 | 3.77 | 2.02 | 1.34 | 4.52 | 1.08 | 0.8
13 | 0.875 | 0.603 | 0.56 | GCAGKYIAMVM [CYP19A1_Y441] | 0.439 | 0.474 | 0.889 | 0.513 | 0.702 | 1 | 0.44 | 0.414 | 0.569 | 0.548 | 0.461 | 1.07 | 0.712
14 | 0.84 | 0.491 | 0.689 | GDYLSYREFHL [ERBIN_Y1107_S1112L] | 2.45 | 22.7 | 1.53 | 0.79 | 3.96 | 1.8 | 5.4 | 2.46 | 0.478 | 16.4 | 3.1 | 0.809 | 15.7
15 | 0.806 | 0.529 | 0.732 | GEDLSYGDVPP [IRS1_Y151] | 0.556 | 0.534 | 0.995 | 0.709 | 0.84 | 1.22 | 0.588 | 0.482 | 0.463 | 0.624 | 0.639 | 1.28 | 0.765
16 | 0.69 | 1.83 | 0.728 | GGDGSYVSVPS [TNNI3K_Y425] | 0.412 | 0.431 | 0.495 | 0.415 | 0.592 | 0.564 | 0.419 | 0.347 | 0.338 | 0.382 | 0.443 | 0.565 | 0.487
17 | 1.23 | 1.79 | 1.29 | GGKYSYLKVGH [GRM3_Y480] | 0.388 | 0.394 | 0.604 | 0.503 | 0.536 | 0.678 | 0.404 | 0.4 | 0.513 | 0.344 | 0.497 | 0.616 | 0.666
18 | 0.875 | 0.514 | 0.727 | GIKAAYEAELG [LMNA_Y81] | 0.438 | 0.507 | 0.691 | 0.446 | 0.496 | 0.713 | 0.502 | 0.392 | 0.404 | 0.531 | 0.597 | 0.797 | 0.704
19 | 0.887 | 0.569 | 0.713 | GIVEDYRPPFC [ACVRL1_Y421_Y426C] | 0.406 | 0.532 | 0.883 | 0.437 | 0.599 | 0.994 | 0.598 | 0.517 | 0.451 | 0.511 | 0.492 | 1.01 | 0.782

The remaining lines, values behind:

Row | Sequence | SH2 binding enrichment (Grb2 SH2) | SH2 binding enrichment (c-Src SH2) | SH2 binding enrichment (SHP2-C SH2) | phosphorylation enrichment (Hck) | phosphorylation enrichment (EPHB2) | phosphorylation enrichment (Jak2) | phosphorylation enrichment (Fer (mouse)) | phosphorylation enrichment (FGFR3) | phosphorylation enrichment (AncSZ) | phosphorylation enrichment (FGFR1) | phosphorylation enrichment (c-Src) | phosphorylation enrichment (MERTK) | phosphorylation enrichment (EPHB1) | phosphorylation enrichment (Fyn) | phosphorylation enrichment (Fes) | phosphorylation enrichment (c-Abl (mouse))
20 | FIIFIYAMKKK [SLCO1B1_Y645_L643F_YF] | 0.884 | 0.758 | 1.4 | 1.45 | 0.541 | 2.04 | 0.72 | 0.578 | 1.42 | 0.461 | 1.65 | 1.09 | 0.709 | 0.848 | 1.23 | 1.52
21 | FKTPTYPFLLP [PLD2_Y578_YF] | 0.971 | 0.657 | 0.745 | 0.43 | 0.422 | 0.815 | 0.362 | 0.704 | 0.641 | 0.652 | 0.552 | 0.588 | 0.74 | 0.413 | 0.693 | 0.833
22 | FRIDHYLGKEM [G6PD_Y202_YF] | 0.932 | 0.625 | 0.607 | 0.49 | 0.41 | 0.675 | 0.41 | 0.671 | 0.808 | 0.455 | 0.32 | 0.371 | 0.448 | 0.427 | 1.63 | 0.54
23 | FSEVRYMKEPF [HIPK4_Y170_V171M_YF] | 0.863 | 0.547 | 0.646 | 0.438 | 0.459 | 0.741 | 0.36 | 0.48 | 0.677 | 0.451 | 0.388 | 0.32 | 0.473 | 0.379 | 0.821 | 0.66
24 | GAAMLYYPSVS [GPR143_Y177] | 0.776 | 0.765 | 0.608 | 1.46 | 1.66 | 2.6 | 0.63 | 3.51 | 0.763 | 4.07 | 1.11 | 4.88 | 1.5 | 0.747 | 0.783 | 0.941
25 | GACGGYCSVLG [RAB18_Y202] | 0.875 | 8.18 | 2.48 | 0.392 | 0.352 | 0.522 | 0.441 | 0.401 | 0.533 | 0.435 | 0.509 | 0.525 | 0.358 | 0.473 | 0.77 | 0.461
26 | GCLSKYSGVFS [TUBGCP6_Y1624_V1621L] | 1.04 | 0.723 | 1.07 | 0.542 | 0.543 | 1.19 | 0.514 | 0.565 | 0.778 | 0.425 | 0.509 | 0.46 | 0.52 | 0.51 | 1.01 | 0.673
27 | GGRIDYIAGLD [APRT_Y60] | 0.789 | 0.498 | 0.728 | 0.52 | 0.417 | 0.708 | 0.521 | 0.545 | 0.898 | 0.447 | 0.422 | 0.46 | 0.85 | 0.409 | 0.829 | 0.582
28 | GHLYANDWISI [BEST1_Y227_Y227N] | 24.5 | 18.4 | 3.5 | 0.575 | 0.619 | 0.878 | 0.527 | 0.674 | 0.819 | 0.609 | 0.683 | 3.32 | 0.778 | 0.734 | 0.871 | 0.587
29 | GIFKDYFRFNF [PLA2G2D_Y85_S80G_YF] | 1.82 | 1.23 | 1.74 | 0.579 | 0.47 | 3.79 | 0.507 | 2.94 | 1.16 | 4.19 | 0.622 | 0.56 | 0.57 | 0.501 | 1.18 | 0.897
30 | GISDEYHVIQH [GCDH_Y398_R402Q] | 0.804 | 0.816 | 0.567 | 0.846 | 0.526 | 0.883 | 0.447 | 3.78 | 1.64 | 6.93 | 0.898 | 0.496 | 0.554 | 0.752 | 0.928 | 0.641
31 | GKSHIYFWTLD [EML2_Y230_E235D] | 0.703 | 0.387 | 0.712 | 0.521 | 0.523 | 1.11 | 0.508 | 1.1 | 1.17 | 1.07 | 0.572 | 0.778 | 0.622 | 0.514 | 1.21 | 0.847
32 | GKVADYIPQLP [GLS_Y249_A254P] | 0.724 | 0.448 | 0.634 | 0.448 | 0.49 | 0.892 | 0.495 | 0.634 | 0.796 | 0.57 | 0.484 | 0.455 | 0.468 | 0.484 | 0.866 | 0.795
33 | GLAELYEFKKK [CKAP5_Y1854_YF] | 2.2 | 0.533 | 0.864 | 0.559 | 0.348 | 0.619 | 0.43 | 0.48 | 0.534 | 0.487 | 0.665 | 0.381 | 0.307 | 0.554 | 0.705 | 0.451
